From the supplement of paper PMC10126150
± gives the standard deviation of the averaged measurements.

tested on: ATP; experiment: switch fluorescence ratio, 500 uM ATP over buffer (Cy3 cluster intensity, sum of 5 cycles each) (fold (ratio)); higher = stronger signal-on switching upon ATP binding; sequences stand for … in TCGTCGGCAGCGTCAGATGTGTATAAGAGACAGTTTTTTTTTTTTTTTTTTTTTTTTT…TC; conditions: aptamer strand: ATP DNA aptamer (quencher-CACCTGGGGGAGTATTGCGGAGGAAGG + anchor), 100 nM annealed; ATP concentration: 500 uM
Method in brief: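 The fluorescence ratio divides summed target-cycle Cy3 intensity by summed buffer-cycle Cy3 intensity for each cluster and is averaged per switch-domain sequence. Cy3-labelled switching-strand clusters on a modified Illumina MiSeq flow-cell were annealed to 100 nM quencher-labelled ATP aptamer, then imaged in selection buffer and again after 15 min with 500 uM ATP at 22 °C. Five such cycles were run, with NaOH stripping and re-annealing between them, and clusters outside 100-1000 RFU were excluded.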
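Further: ATP exposure 15 min at 22 °C before imaging.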

| Sequence | switch fluorescence ratio |
| --- | --- |
| GAGCATGGGA | 1.02 ± 0.012 |
| GAGCCATTTT | 0.991 ± 0.041 |
| GAGCCGGGTA | 0.9982 ± 0.0063 |
| GAGCCTTACT | 1.38 ± 0.26 |
| GAGCGAAAGG | 0.991 ± 0.025 |
| GAGCGAGCTC | 0.988 ± 0.021 |
| GAGCGGCTTC | 1.027 ± 0.0097 |
| GAGCGGGGGG | 0.969 ± 0.022 |
| GAGCGGGGTG | 1 ± 0.021 |
| GAGCGTAGGG | 0.9537 ± 0.0089 |
| GAGCGTCACG | 1.006 ± 0.0055 |
| GAGCTAAGTT | 0.992 ± 0.012 |
| GAGCTCTTAT | 1 ± 0.038 |
| GAGCTGCGGG | 1.002 ± 0.0021 |
| GAGCTGGGCG | 0.969 ± 0.13 |
| GAGCTGGGTC | 1.02 ± 0.071 |
| GAGCTGTGGG | 0.971 ± 0.039 |
| GAGCTTGTGG | 1.03 ± 0.015 |
| GAGGAAAAGT | 0.997 ± 0.051 |
| GAGGAAAGCA | 0.9815 ± 0.0056 |
| GAGGAAATCA | 0.9877 ± 0.008 |
| GAGGAGCTGG | 0.986 ± 0.051 |
| GAGGAGCTGT | 0.999 ± 0.026 |
| GAGGAGGAAT | 1.01 ± 0.017 |
| GAGGAGGGGT | 0.989 ± 0.039 |

| Sequence | switch fluorescence ratio |
| --- | --- |
| GAGGATAGGG | 0.9768 ± 0.0037 |
| GAGGATAGGT | 0.98 ± 0.011 |
| GAGGATGGCA | 0.9807 ± 0.0061 |
| GAGGATTCAT | 1.04 ± 0.085 |
| GAGGATTTCA | 0.99698 ± 0.00049 |
| GAGGCATTGT | 1.05 ± 0.017 |
| GAGGCGACTG | 1.03 ± 0.031 |
| GAGGCTACTG | 0.9901 ± 0.0082 |
| GAGGCTAGTT | 0.9936 ± 0.0047 |
| GAGGCTGGGT | 0.988 ± 0.0081 |
| GAGGGAAATG | 0.997 ± 0.098 |
| GAGGGAACAG | 1.01 ± 0.013 |
| GAGGGACAAT | 0.9882 ± 0.0066 |
| GAGGGACCGT | 0.995 ± 0.025 |
| GAGGGACGAG | 1.05 ± 0.015 |
| GAGGGACTGT | 0.972 ± 0.026 |
| GAGGGATAGC | 0.991 ± 0.025 |
| GAGGGCAGAC | 1.24 ± 0.075 |
| GAGGGCCTTT | 0.968 ± 0.048 |
| GAGGGCGTCA | 0.995 ± 0.027 |
| GAGGGGAACT | 0.995 ± 0.021 |
| GAGGGGAAGA | 0.998 ± 0.031 |
| GAGGGGAGGA | 1.04 ± 0.014 |
| GAGGGGAGTA | 1 ± 0.033 |
| GAGGGGATAT | 1.38 ± 0.59 |

| Sequence | switch fluorescence ratio |
| --- | --- |
| GAGGGGATCG | 0.967 ± 0.015 |
| GAGGGGATGA | 1.01 ± 0.031 |
| GAGGGGCCTC | 1.03 ± 0.037 |
| GAGGGGGAAA | 1.02 ± 0.031 |
| GAGGGGGAAG | 1 ± 0.049 |
| GAGGGGGGTG | 1 ± 0.028 |
| GAGGGGGTCC | 1.03 ± 0.069 |
| GAGGGGTATC | 0.96 ± 0.045 |
| GAGGGGTTAC | 1.01 ± 0.05 |
| GAGGGGTTGC | 1.09 ± 0.047 |
| GAGGGGTTTA | 1 ± 0.027 |
| GAGGGTAAGA | 1.02 ± 0.062 |
| GAGGGTCTCT | 0.98005 ± 0.00068 |
| GAGGGTTCGA | 0.987 ± 0.033 |
| GAGGGTTTTA | 1 ± 0.016 |
| GAGGTACGCG | 1.026 ± 0.0062 |
| GAGGTAGGTC | 0.9945 ± 0.0019 |
| GAGGTATTGG | 1.01 ± 0.022 |
| GAGGTCAGTG | 0.974 ± 0.019 |
| GAGGTGCTGA | 1 ± 0.061 |
| GAGGTGTGAC | 1.01 ± 0.039 |
| GAGGTTCAGT | 0.989 ± 0.011 |
| GAGGTTCGCT | 0.979 ± 0.069 |
| GAGGTTGCGG | 0.96 ± 0.036 |
| GAGGTTGGGA | 1.01 ± 0.012 |

| Sequence | switch fluorescence ratio |
| --- | --- |
| GAGGTTTATA | 0.984 ± 0.043 |
| GAGGTTTGGG | 0.982 ± 0.035 |
| GAGGTTTTTT | 0.987 ± 0.021 |
| GAGTAACCAG | 0.979 ± 0.036 |
| GAGTAAGATT | 1.02 ± 0.025 |
| GAGTAATGGG | 1.003 ± 0.0098 |
| GAGTACCGAA | 0.969 ± 0.031 |
| GAGTACTAGA | 1.02 ± 0.018 |
| GAGTAGGGGG | 0.993 ± 0.033 |
| GAGTATAATA | 0.997 ± 0.025 |
| GAGTATACGT | 1.022 ± 0.0048 |
| GAGTCAGGGT | 1.02 ± 0.011 |
| GAGTCCGTAC | 1.31 ± 0.017 |
| GAGTCGAGAG | 0.99 ± 0.033 |
| GAGTCTGTCC | 1.019 ± 0.0035 |
| GAGTGACTCG | 1.01 ± 0.014 |
| GAGTGAGGTT | 0.955 ± 0.046 |
| GAGTGATGTT | 0.979 ± 0.012 |
| GAGTGCATTG | 1.01 ± 0.015 |
| GAGTGCCGGT | 1.02 ± 0.023 |
| GAGTGCGTCG | 1.01 ± 0.16 |
| GAGTGCTAAA | 1.01 ± 0.0053 |
| GAGTGCTTGG | 0.973 ± 0.022 |
| GAGTGGGCGG | 0.996 ± 0.071 |
| GAGTGGTTAG | 0.9884 ± 0.0017 |
